Laboratory results published in patent publication US20200308270A1 (Zymeworks, published 2020).

T1: human recombinant FcgammaR receptor CD32aR (human, UniProt P12318 34-217, limits assumed)
T1 sequence (looked up): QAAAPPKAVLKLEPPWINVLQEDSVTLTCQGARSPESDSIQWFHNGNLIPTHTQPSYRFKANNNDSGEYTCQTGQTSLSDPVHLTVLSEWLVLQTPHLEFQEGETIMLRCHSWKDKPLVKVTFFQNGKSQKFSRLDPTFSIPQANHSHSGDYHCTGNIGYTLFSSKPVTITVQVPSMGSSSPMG

B1: CAT-2200 designed Vlambda-Ckappa chimeric Mab, design 39 (E83A_D85T_T105E_V106I) (antibody, human IgG1, kappa)
heavy: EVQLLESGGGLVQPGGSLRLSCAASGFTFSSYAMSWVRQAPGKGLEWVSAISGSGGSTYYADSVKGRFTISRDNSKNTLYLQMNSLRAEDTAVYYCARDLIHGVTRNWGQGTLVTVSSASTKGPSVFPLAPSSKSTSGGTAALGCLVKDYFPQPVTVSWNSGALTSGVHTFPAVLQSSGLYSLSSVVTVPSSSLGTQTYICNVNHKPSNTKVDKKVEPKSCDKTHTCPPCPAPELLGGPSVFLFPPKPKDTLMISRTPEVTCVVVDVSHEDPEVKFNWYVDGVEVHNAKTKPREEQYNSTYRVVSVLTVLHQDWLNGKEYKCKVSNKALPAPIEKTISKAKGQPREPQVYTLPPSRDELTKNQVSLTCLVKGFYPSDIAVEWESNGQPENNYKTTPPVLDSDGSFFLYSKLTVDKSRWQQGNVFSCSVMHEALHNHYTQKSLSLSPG
light: NFMLTQPHSVSESPGKTVTISCTRSSGSLANYYVQWYQQRPGSSPTIVIFANNQRPSGVPDRFSGSIDSSSNSASLTISGLKTEDAATYYCQTYDPYSVVFGGGTKLEILRTVAAPSVFIFPPSDEQLKSGTASVVCLLNNFYPREAKVQWKVDNALQSGNSQESVTEQDSKDSTYSLSSTLTLSKADYEKHKVYACEVTHQGLSSPVTKSFNRGEC
notes: IgG1 Mab format
B2: CAT-2200 designed Vlambda-Ckappa chimeric Mab, design 26 (E83V_D85T) (antibody, human IgG1, kappa)
heavy: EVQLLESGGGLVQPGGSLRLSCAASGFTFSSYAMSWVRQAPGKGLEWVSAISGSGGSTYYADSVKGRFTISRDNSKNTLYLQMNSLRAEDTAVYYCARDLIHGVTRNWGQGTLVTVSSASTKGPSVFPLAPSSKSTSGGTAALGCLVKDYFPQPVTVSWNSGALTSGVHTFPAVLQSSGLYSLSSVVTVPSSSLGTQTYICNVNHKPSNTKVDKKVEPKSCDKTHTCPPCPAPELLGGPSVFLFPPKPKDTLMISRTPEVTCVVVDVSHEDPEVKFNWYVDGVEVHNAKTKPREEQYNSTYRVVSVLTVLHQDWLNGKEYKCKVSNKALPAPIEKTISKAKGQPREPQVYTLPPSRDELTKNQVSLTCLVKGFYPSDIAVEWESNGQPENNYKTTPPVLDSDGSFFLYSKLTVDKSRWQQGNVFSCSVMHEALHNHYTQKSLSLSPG
light: NFMLTQPHSVSESPGKTVTISCTRSSGSLANYYVQWYQQRPGSSPTIVIFANNQRPSGVPDRFSGSIDSSSNSASLTISGLKTEDVATYYCQTYDPYSVVFGGGTKLTVLRTVAAPSVFIFPPSDEQLKSGTASVVCLLNNFYPREAKVQWKVDNALQSGNSQESVTEQDSKDSTYSLSSTLTLSKADYEKHKVYACEVTHQGLSSPVTKSFNRGEC
notes: IgG1 Mab format
B3: CAT-2200 designed Vlambda-Ckappa chimeric Mab, design 37 (E83A_D85T) (antibody, human IgG1, kappa)
heavy: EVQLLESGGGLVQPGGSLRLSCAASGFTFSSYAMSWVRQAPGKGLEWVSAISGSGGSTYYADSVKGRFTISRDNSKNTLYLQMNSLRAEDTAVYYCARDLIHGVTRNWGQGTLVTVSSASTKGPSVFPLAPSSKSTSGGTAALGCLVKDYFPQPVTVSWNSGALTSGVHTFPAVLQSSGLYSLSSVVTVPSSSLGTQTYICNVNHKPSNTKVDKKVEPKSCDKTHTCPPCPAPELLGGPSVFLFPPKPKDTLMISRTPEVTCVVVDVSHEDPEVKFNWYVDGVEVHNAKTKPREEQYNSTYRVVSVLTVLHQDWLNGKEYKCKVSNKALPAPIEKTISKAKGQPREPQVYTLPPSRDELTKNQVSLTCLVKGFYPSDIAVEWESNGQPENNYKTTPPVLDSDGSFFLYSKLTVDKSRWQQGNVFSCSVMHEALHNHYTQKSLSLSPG
light: NFMLTQPHSVSESPGKTVTISCTRSSGSLANYYVQWYQQRPGSSPTIVIFANNQRPSGVPDRFSGSIDSSSNSASLTISGLKTEDAATYYCQTYDPYSVVFGGGTKLTVLRTVAAPSVFIFPPSDEQLKSGTASVVCLLNNFYPREAKVQWKVDNALQSGNSQESVTEQDSKDSTYSLSSTLTLSKADYEKHKVYACEVTHQGLSSPVTKSFNRGEC
notes: IgG1 Mab format
B4: CAT-2200 designed Vlambda-Ckappa chimeric Mab, design 18 (E83F_D85T_T105E) (antibody, human IgG1, kappa, V domains shown)
VH: not shown
VL: NFMLTQPHSVSESPGKTVTISCTRSSGSLANYYVQWYQQRPGSSPTIVIFANNQRPSGVPDRFSGSIDSSSNSASLTISGLKTEDFATYYCQTYDPYSVVFGGGTKLEVLR
notes: IgG1 Mab format
B5: CAT-2200 Vlambda-Ckappa chimeric Mab (antibody, human IgG1, kappa)
heavy: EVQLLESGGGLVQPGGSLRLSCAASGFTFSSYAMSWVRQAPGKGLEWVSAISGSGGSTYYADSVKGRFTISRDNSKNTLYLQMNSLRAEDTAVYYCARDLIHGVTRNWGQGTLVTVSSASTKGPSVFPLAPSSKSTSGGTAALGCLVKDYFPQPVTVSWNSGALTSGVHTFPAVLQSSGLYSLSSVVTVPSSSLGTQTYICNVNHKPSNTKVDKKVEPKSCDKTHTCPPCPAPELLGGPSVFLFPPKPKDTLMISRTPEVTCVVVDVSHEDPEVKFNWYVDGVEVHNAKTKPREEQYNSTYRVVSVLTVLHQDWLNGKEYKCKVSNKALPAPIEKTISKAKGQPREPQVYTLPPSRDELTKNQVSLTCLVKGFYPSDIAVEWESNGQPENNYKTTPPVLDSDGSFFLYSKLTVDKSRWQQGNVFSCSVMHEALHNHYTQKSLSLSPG
light: NFMLTQPHSVSESPGKTVTISCTRSSGSLANYYVQWYQQRPGSSPTIVIFANNQRPSGVPDRFSGSIDSSSNSASLTISGLKTEDEADYYCQTYDPYSVVFGGGTKLTVLRTVAAPSVFIFPPSDEQLKSGTASVVCLLNNFYPREAKVQWKVDNALQSGNSQESVTEQDSKDSTYSLSSTLTLSKADYEKHKVYACEVTHQGLSSPVTKSFNRGEC
notes: IgG1 Mab format; chimeric light chain without stabilizing substitutions; also called chimera
B6: CAT-2200 designed Vlambda-Ckappa chimeric Mab, design 32 (E83I_D85T) (antibody, human IgG1, kappa)
heavy: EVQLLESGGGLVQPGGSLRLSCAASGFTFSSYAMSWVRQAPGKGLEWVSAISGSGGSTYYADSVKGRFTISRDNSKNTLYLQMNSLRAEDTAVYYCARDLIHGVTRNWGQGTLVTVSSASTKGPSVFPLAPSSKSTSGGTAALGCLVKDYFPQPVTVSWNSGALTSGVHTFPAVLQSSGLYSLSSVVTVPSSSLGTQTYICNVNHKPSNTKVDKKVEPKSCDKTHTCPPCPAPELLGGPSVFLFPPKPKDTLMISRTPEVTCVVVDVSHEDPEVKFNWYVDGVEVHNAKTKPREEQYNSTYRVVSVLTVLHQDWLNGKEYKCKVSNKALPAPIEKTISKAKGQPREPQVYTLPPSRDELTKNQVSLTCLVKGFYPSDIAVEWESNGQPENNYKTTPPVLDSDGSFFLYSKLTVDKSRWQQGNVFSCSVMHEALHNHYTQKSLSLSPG
light: NFMLTQPHSVSESPGKTVTISCTRSSGSLANYYVQWYQQRPGSSPTIVIFANNQRPSGVPDRFSGSIDSSSNSASLTISGLKTEDIATYYCQTYDPYSVVFGGGTKLTVLRTVAAPSVFIFPPSDEQLKSGTASVVCLLNNFYPREAKVQWKVDNALQSGNSQESVTEQDSKDSTYSLSSTLTLSKADYEKHKVYACEVTHQGLSSPVTKSFNRGEC
notes: IgG1 Mab format
B7: CAT-2200 designed Vlambda-Ckappa chimeric Mab, design 29 (E83V_D85T_T105E_V106I) (antibody, human IgG1, kappa)
heavy: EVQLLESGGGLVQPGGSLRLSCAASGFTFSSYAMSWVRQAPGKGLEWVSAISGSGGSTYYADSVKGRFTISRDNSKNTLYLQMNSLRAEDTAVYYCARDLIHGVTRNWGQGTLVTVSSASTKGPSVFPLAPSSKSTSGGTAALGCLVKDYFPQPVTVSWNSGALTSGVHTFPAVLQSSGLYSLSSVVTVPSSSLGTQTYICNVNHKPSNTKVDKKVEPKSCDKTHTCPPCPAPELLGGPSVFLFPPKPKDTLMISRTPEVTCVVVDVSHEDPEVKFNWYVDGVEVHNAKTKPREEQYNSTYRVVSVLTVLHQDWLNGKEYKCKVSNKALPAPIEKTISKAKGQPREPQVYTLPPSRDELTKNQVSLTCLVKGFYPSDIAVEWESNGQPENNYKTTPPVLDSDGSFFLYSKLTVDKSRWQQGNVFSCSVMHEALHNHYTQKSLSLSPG
light: NFMLTQPHSVSESPGKTVTISCTRSSGSLANYYVQWYQQRPGSSPTIVIFANNQRPSGVPDRFSGSIDSSSNSASLTISGLKTEDVATYYCQTYDPYSVVFGGGTKLEILRTVAAPSVFIFPPSDEQLKSGTASVVCLLNNFYPREAKVQWKVDNALQSGNSQESVTEQDSKDSTYSLSSTLTLSKADYEKHKVYACEVTHQGLSSPVTKSFNRGEC
notes: IgG1 Mab format
B8: CAT-2200 designed Vlambda-Ckappa chimeric Mab, design 34 (E83I_D85T_T105E_V106I) (antibody, human IgG1, kappa)
heavy: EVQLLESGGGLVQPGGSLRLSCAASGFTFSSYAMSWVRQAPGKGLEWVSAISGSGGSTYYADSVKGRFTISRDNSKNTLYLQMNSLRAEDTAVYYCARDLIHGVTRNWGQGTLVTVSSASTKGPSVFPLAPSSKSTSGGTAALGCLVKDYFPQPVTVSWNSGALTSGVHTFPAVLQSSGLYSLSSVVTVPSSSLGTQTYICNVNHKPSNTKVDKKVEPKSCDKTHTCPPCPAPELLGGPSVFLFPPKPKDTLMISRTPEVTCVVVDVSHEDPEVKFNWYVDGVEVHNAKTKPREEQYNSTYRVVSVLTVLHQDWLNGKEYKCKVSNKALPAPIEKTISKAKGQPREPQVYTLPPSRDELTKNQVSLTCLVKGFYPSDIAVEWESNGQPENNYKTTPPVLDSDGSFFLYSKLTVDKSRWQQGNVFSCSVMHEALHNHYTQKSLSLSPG
light: NFMLTQPHSVSESPGKTVTISCTRSSGSLANYYVQWYQQRPGSSPTIVIFANNQRPSGVPDRFSGSIDSSSNSASLTISGLKTEDIATYYCQTYDPYSVVFGGGTKLEILRTVAAPSVFIFPPSDEQLKSGTASVVCLLNNFYPREAKVQWKVDNALQSGNSQESVTEQDSKDSTYSLSSTLTLSKADYEKHKVYACEVTHQGLSSPVTKSFNRGEC
notes: IgG1 Mab format
B9: H3 designed Vlambda-Ckappa chimeric Mab, design 26 (E83V_D85T) (antibody, human IgG1, kappa, name in Kabat numbering)
heavy: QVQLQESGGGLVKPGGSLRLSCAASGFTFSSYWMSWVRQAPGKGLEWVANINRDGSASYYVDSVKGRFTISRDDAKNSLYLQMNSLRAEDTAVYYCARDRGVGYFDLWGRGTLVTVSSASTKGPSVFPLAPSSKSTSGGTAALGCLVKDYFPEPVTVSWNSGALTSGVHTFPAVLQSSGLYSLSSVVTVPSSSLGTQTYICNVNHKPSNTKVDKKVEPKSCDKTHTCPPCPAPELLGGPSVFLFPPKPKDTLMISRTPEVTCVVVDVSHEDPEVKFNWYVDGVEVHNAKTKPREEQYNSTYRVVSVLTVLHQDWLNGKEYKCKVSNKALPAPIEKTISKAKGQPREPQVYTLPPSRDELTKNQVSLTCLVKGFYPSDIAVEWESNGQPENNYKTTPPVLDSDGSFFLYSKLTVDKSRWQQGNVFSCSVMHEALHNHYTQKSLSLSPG
light: QSALTQPASVSGSPGQSITISCTGTSSDVGGYNFVSWYQQHPGKAPKLMIYDVSDRPSGVSDRFSGSKSGNTASLIISGLQADDVATYYCSSYGSSSTHVIFGGGTKVTVLRTVAAPSVFIFPPSDEQLKSGTASVVCLLNNFYPREAKVQWKVDNALQSGNSQESVTEQDSKDSTYSLSSTLTLSKADYEKHKVYACEVTHQGLSSPVTKSFNRGEC
notes: IgG1 Mab format
B10: H3 designed Vlambda-Ckappa chimeric Mab, design 34 (E83I_D85T_T105E_V106I) (antibody, human IgG1, kappa, name in Kabat numbering)
heavy: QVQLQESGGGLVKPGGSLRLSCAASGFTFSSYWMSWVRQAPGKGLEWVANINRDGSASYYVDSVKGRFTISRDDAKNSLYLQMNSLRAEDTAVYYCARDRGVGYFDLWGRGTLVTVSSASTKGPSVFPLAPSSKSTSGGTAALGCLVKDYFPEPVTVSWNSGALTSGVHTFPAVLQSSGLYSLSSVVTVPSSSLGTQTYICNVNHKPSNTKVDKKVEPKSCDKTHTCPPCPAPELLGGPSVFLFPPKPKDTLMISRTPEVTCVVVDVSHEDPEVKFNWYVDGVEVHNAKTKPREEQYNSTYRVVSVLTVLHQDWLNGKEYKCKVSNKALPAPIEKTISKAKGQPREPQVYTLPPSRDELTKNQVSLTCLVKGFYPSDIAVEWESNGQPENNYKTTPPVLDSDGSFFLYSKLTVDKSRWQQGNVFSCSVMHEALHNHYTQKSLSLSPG
light: QSALTQPASVSGSPGQSITISCTGTSSDVGGYNFVSWYQQHPGKAPKLMIYDVSDRPSGVSDRFSGSKSGNTASLIISGLQADDIATYYCSSYGSSSTHVIFGGGTKVEILRTVAAPSVFIFPPSDEQLKSGTASVVCLLNNFYPREAKVQWKVDNALQSGNSQESVTEQDSKDSTYSLSSTLTLSKADYEKHKVYACEVTHQGLSSPVTKSFNRGEC
notes: IgG1 Mab format
B11: H3 designed Vlambda-Ckappa chimeric Mab, design 18 (E83F_D85T_T105E) (antibody, human IgG1, kappa, name in Kabat numbering, V domains shown)
VH: QVQLQESGGGLVKPGGSLRLSCAASGFTFSSYWMSWVRQAPGKGLEWVANINRDGSASYYVDSVKGRFTISRDDAKNSLYLQMNSLRAEDTAVYYCARDRGVGYFDLWGRGTLVTVSS
VL: QSALTQPASVSGSPGQSITISCTGTSSDVGGYNFVSWYQQHPGKAPKLMIYDVSDRPSGVSDRFSGSKSGNTASLIISGLQADDFATYYCSSYGSSSTHVIFGGGTKVEVLR
notes: IgG1 Mab format
B12: H3 designed Vlambda-Ckappa chimeric Mab, design 32 (E83I_D85T) (antibody, human IgG1, kappa, name in Kabat numbering)
heavy: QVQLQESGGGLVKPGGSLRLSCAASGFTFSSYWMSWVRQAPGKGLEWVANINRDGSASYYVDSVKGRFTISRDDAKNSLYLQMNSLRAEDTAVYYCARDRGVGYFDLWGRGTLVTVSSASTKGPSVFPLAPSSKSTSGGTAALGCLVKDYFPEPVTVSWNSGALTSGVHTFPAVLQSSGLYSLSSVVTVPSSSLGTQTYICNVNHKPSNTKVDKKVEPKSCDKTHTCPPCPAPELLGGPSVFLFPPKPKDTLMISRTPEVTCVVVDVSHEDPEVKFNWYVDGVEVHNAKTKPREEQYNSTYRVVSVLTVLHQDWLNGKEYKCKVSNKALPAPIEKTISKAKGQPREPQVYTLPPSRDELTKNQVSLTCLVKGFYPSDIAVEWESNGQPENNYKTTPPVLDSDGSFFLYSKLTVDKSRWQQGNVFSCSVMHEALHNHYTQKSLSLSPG
light: QSALTQPASVSGSPGQSITISCTGTSSDVGGYNFVSWYQQHPGKAPKLMIYDVSDRPSGVSDRFSGSKSGNTASLIISGLQADDIATYYCSSYGSSSTHVIFGGGTKVTVLRTVAAPSVFIFPPSDEQLKSGTASVVCLLNNFYPREAKVQWKVDNALQSGNSQESVTEQDSKDSTYSLSSTLTLSKADYEKHKVYACEVTHQGLSSPVTKSFNRGEC
notes: IgG1 Mab format

What was measured:
[1] = target: T1, human recombinant FcgammaR receptor …; assay: SPR (ProteOn), Mab captured via anti-human Fc, FcgammaR analyte
Method: (§1) Goat polyclonal anti-human Fc antibody was purchased from Jackson Immuno Research Laboratories Inc. (West Grove, Pa.). […] Human recombinant FcγR receptors: CD16aV, CD32bF, CD32aR, and CD32aH were expressed as constructs containing a His10-tag at the C-terminus and purified by Ni-affinity chromatography followed by His-tag removal and SEC purification.
(§2) FcγR affinity determination was carried out as follows. The screening of Mabs for binding to various FcγR receptors occurred in two steps: an indirect capture of Mab samples onto the anti-human Fc-specific polyclonal antibody surface, followed by the injection of five concentrations of each of FcγR receptors. The anti-human Fc surface was prepared on a GLC sensorchip by amine coupling. GLC sensorchip surface was activated by a 1:10 dilution of the standard BioRad sNHS/EDC solutions injected for 140s at 100 μL/min in the analyte (horizontal) direction. Immediately after the activation, 25 microg/mL solution of anti-human Fc in 10 mM NaOAc pH 4.5 was injected in the analyte direction at a flow rate of 25 microL/min for 240s until approximately 4500 or 2500 resonance units (RUs) were immobilized. Remaining active groups were quenched by a 300s injection of 1M ethanolamine at 30 μL/min also in the analyte direction. Mabs for analysis were indirectly captured onto the anti-human Fc surface by injecting 10 microg/ml solutions in the ligand (vertical) direction at a flow rate of 25 microL/min for 240s. Each of the FcγR receptors was subsequently injected in the analyte (horizontal) direction. Firstly, two buffer injections for 30s at 100 microL/min in the analyte (horizontal) direction were used to stabilize the baseline. Five concentrations of a three-fold dilution series of each of the four FcγR receptors starting at 10 μM with a blank buffer control were then simultaneously injected at 50 microL/min for 120 s with a 3 minute dissociation phase, resulting in a set of binding sensorgrams with a buffer reference. […] Sensorgrams were aligned and double-referenced using the buffer blank injection and interspots, and the resulting sensorgrams were analyzed using ProteOn Manager software v3.1.

[2] = target: human recombinant FcgammaR receptor CD16aV (human, UniProt P08637 17-208, limits assumed); assay: as above
Chain of human recombinant FcgammaR receptor CD16aV (P08637 17-208 F176V limits assumed): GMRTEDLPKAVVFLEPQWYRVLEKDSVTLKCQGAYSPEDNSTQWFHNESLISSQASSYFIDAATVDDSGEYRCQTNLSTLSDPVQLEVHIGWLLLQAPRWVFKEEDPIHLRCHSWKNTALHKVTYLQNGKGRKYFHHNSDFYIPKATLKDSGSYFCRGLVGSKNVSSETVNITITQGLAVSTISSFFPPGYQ
Method: as §1, §2

[3] = target: T2, recombinant human IL-17A (human, UniProt Q16552 20-155, limits assumed); assay: SPR (ProteOn), IL-17A immobilized, Mab analyte
T2 construct: Bought reagent
T2 sequence (Q16552 20-155 limits assumed): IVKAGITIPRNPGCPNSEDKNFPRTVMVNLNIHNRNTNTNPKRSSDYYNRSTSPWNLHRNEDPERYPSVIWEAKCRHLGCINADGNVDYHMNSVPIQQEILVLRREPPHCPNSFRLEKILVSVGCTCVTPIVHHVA
Method: IL-17 affinity determination was carried out as follows. The IL-17A surface was generated using a GLC sensorchip activated by a 1:10 dilution of the standard BioRad sNHS/EDC solutions injected for 140s at 100 pt/min in the ligand (vertical) direction. Immediately after the activation, 1 to 4 microg/mL solution of IL-17A in 10 mM NaOAc pH 4.5 was injected in the ligand (vertical) direction at a flow rate of 25 or 100 microL/min until approximately 75-200 resonance units (RUs) were immobilized. Remaining active groups were quenched by a 140s injection of 1M ethanolamine at 100 μL/min also in the ligand direction. […] Firstly, two buffer injections for 30s at 100 microL/min in the analyte (horizontal) direction were used to stabilize the baseline. […] Sensorgrams were aligned and double-referenced using the buffer blank injection and interspots, and the resulting sensorgrams were analyzed using ProteOn Manager software v3.1. The double-referenced sensorgrams were fit to the Langmuir binding model.

[4] = target: T3, human recombinant FcRn (human, UniProt P55899 24-297; P61769 21-119, limits assumed); assay: SPR (ProteOn), FcRn immobilized, Mab analyte, pH 5.8
T3 construct: also called neonatal receptor
T3 sequence (P55899 24-297 limits assumed, chain 1 of 2): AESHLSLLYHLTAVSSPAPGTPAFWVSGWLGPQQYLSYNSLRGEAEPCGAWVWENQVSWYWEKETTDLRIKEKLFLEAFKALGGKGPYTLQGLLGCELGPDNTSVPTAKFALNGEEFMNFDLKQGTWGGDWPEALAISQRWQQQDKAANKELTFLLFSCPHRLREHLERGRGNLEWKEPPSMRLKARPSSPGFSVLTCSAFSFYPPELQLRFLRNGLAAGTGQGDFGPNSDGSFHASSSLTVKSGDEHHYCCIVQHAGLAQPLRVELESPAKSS
T3 sequence (P61769 21-119 limits assumed, chain 2 of 2): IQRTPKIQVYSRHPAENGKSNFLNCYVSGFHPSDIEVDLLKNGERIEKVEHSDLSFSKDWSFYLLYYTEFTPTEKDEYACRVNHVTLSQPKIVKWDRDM
Method: FcRn affinity determination was carried out as follows. FcRn surface was generated using a GLC sensorchip activated by a 1:10 dilution of the standard BioRad sNHS/EDC solutions injected for 140s at 100 μL/min in the ligand (vertical) direction. Immediately after the activation, 10 microg/mL solution of FcRn in 10 mM NaOAc pH 4.5 was injected in the ligand (vertical) direction at a flow rate of 25 microL/min for 120s until approximately 2000 resonance units (RUs) were immobilized. Remaining active groups were quenched by a 140s injection of 1M ethanolamine at 30 μL/min also in the ligand direction. The running buffer used on the FcRn surface was PBST pH 5.8. The screening of the Mabs for binding to FcRn was performed by injection of purified Mabs in the analyte (horizontal) direction. Firstly, two buffer injections for 30s at 100 microL/min in the analyte (horizontal) direction were used to stabilize the baseline. Five concentrations of a three-fold dilution series of each Mab starting at 100 nM with a blank buffer control were simultaneously injected at 50 microL/min for 120 s with a 10 minute dissociation phase, resulting in a set of binding sensorgrams with a buffer reference. […] Sensorgrams were aligned and double-referenced using the buffer blank injection and interspots, and the resulting sensorgrams were analyzed using ProteOn Manager software v3.1. The double-referenced sensorgrams were fit to the Langmuir binding model.

[5] = target: T4, recombinant human HER3 (human, UniProt P21860 20-643); assay: SPR (ProteOn), Mab captured via anti-human Fc, HER3 analyte
T4 construct: Bought reagent
Method: HER3 affinity determination in Mabs was carried out as follows. The screening of Mabs for binding to HER3 antigen occurred in two steps: an indirect capture of Mabs onto the anti-human Fc-specific polyclonal antibody surface, followed by the injection of five concentrations of HER3. The anti-human Fc surface was prepared on a GLC sensorchip by amine coupling. GLC sensorchip surface was activated by a 1:10 dilution of the standard BioRad sNHS/EDC solutions injected for 140s at 100 pt/min in the analyte (horizontal) direction. Immediately after the activation, 25 microg/mL solution of anti-human Fc in 10 mM NaOAc pH 4.5 was injected in the ligand (vertical) direction at a flow rate of 25 microL/min for 240s until approximately 3000 resonance units (RUs) were immobilized. Remaining active groups were quenched by a 140s injection of 1M ethanolamine at 100 μL/min also in the analyte direction. Mabs for analysis were indirectly captured onto the anti-Fc surface by injecting 20 microg/mL solutions in the ligand (vertical) direction at a flow rate of 25 microL/min for 240s. HER3 was subsequently injected in the analyte (horizontal) direction. Firstly, two buffer injections for 30s at 100 microL/min in the analyte (horizontal) direction were used to stabilize the baseline. […] Sensorgrams were aligned and double-referenced using the buffer blank injection and interspots, and the resulting sensorgrams were analyzed using ProteOn Manager software v3.1. The double-referenced sensorgrams were fit to the Langmuir binding model.

Row | Binder | Kd [1] | Kd [2] | Kd [3] | Kd [4] | Kd [5]
1 | B1 | 2400 nM | 1300 nM | 0.044 nM | 24.7 nM | –
2 | B2 | – | – | 0.048 nM | – | –
3 | B3 | 2400 nM | 1400 nM | 0.048 nM | 23.4 nM | –
4 | B4 | – | – | 0.048 nM | – | –
5 | B5 | 2500 nM | – | 0.042 nM | 14.3 nM | –
6 | B6 | – | – | 0.05 nM | – | –
7 | B7 | 2300 nM | 1300 nM | 0.049 nM | 27.9 nM | –
8 | B8 | – | – | 0.053 nM | – | –
9 | B9 | – | – | – | – | 56 nM
10 | B10 | – | – | – | – | 60 nM
11 | B11 | – | – | – | – | 66 nM
12 | B12 | – | – | – | – | 67 nM
